Key:
purified protein [1] = substrate: O=C(O)C(=O)C[C@@H](O)CO; experiment: purified protein; type: biochemical, Azospirillum brasilense; details: 2 mM NAD+ for coupling enzyme, 5 mM MgCl2, 50 mM HEPES pH 7.5, 25 °C
[2] = substrate: O=C(O)C(=O)C[C@H](O)CO; experiment: purified protein, by the assay type; set-up: coupled assay with PpKGSADH, NADH formation at 340 nm, Michaelis-Menten fit, 25 °C, pH 7.5; details: pH 7.5; 25.0 °C
Procedure: (§1) To determine dehydratase activity, a coupled-assay with PpKGSADH as auxiliary enzyme was used to link the oxidation of KGSA to α-KG using NAD^+, as was described in a previous study (Beer et al. [2017]). The measurement was performed in a 96-well F-bottom plate (Greiner Bio-One, Germany). 20 μL of a diluted enzyme was added to a 96-well plate. A total of 180 μL of reaction solution containing different concentrations of either D-KDP or L-KDP with 0.5 U/mL PpKGSADH, 2 mM NAD^+, 5 mM MgCl2, 50 mM HEPES pH 7.5 (end concentration) were added subsequently. The measurement was performed with a Multiskan spectrophotometer (Thermo Scientific, Germany) by measuring the development of NADH at 340 nm at 25 °C. Enzyme activity (kcat) was defined as the number of NADH molecules formed per molecule of enzyme per second. Measurements were performed in triplicate.

purified protein [3] = substrate: O=C(O)C(=O)C[C@H](O)CO; experiment: purified protein; type: biochemical, Herbaspirillum seropedicae; details: 2 mM NAD+ for coupling enzyme, 5 mM MgCl2, 50 mM HEPES pH 7.5, 25 °C
[4] = substrate: O=C(O)C(=O)C[C@@H](O)CO; experiment: purified protein, by the assay type; set-up: coupled assay with PpKGSADH, NADH formation at 340 nm, Michaelis-Menten fit, 25 °C, pH 7.5; details: pH 7.5; 25.0 °C
Procedure: as §1

purified protein [5] = substrate: O=C(O)C(=O)C[C@H](O)CO; experiment: purified protein; type: biochemical, Caulobacter vibrioides; details: 2 mM NAD+ for coupling enzyme, 5 mM MgCl2, 50 mM HEPES pH 7.5, 25 °C
purified protein [6] = substrate: O=C(O)C(=O)C[C@H](O)CO; experiment: purified protein; type: biochemical, Paraburkholderia xenovorans; details: 2 mM NAD+ for coupling enzyme, 5 mM MgCl2, 50 mM HEPES pH 7.5, 25 °C
purified protein [7] = substrate: O=C(O)C(=O)C[C@@H](O)CO; experiment: purified protein; type: biochemical, Herbaspirillum seropedicae; details: 2 mM NAD+ for coupling enzyme, 5 mM MgCl2, 50 mM HEPES pH 7.5, 25 °C

Protein | Km [2] [µM] | kcat [2] [s⁻¹] | kcat/Km [2] [M⁻¹ s⁻¹] | Km [4] [µM] | kcat [4] [s⁻¹] | kcat/Km [4] [M⁻¹ s⁻¹] | further results
AbL-KdpD (Azospirillum brasilense) (protein, N-terminal His6 tag (kept), codon-optimised synthetic gene, E. coli BL21(DE3), HisTrap purified, lower purity) MTSSSTPRHRGIFPVVPTTFADTGELDLASQKRAVDFMIDAGSDGLCILANFSEQFAITDDERDVLTRTILEHVAGRVPVIVTTSHYSTQVCAARSLRAQQLGAAMVMAMPPYHGATFRVPEAQIFEFYARVSDAIAIPIMVQDAPASGTALSAPFLARMAREIEQVAYFKIETPGAANKLRELIRLGGDAIEGPWDGEEAITLLADLHAGATGAMTGGGFPDGIRPILEAWREGRHDDAYARYQAWLPLINHENRQSGILTAKALMREGGVIASERPRHPMPELHPDTRAELLAIARRLDPLVLRWAH | 6810 ± 350 | 6.65 ± 0.1 | 980 ± 230 | – | – | – | Km (purified protein [1]): 190 ± 20 µM; kcat (purified protein [1]): 13.6 ± 0.3 s⁻¹; kcat/Km (purified protein [1]): 71300 ± 300 M⁻¹ s⁻¹
HsD-KdpD (Herbaspirillum seropedicae SmR1) (protein, C-terminal His6 tag (kept), pET vector, E. coli BL21(DE3), HisTrap purified) MAHTFSLQAHLPEDHAQATLIGRIWQPGVGPVLVRIDADGAYDLTLIAATSSELLELDNPAAAVRSATNMTRIATLQELLDNADAAGRDTSRPWLLAPIDLQAVKASGVTFVASMLERVIEEQARGDAGKAESVRKAITAVIGDNLSSVVPGSPEAARLKEVLLDQGVWSQYLEVGIGPDAEIFTKAQPMSSVGLGDEVGIHPKSAWNNPEPEIVLAINSRGKVVGATLGNDVNLRDFEGRSALLLGKAKDNNASCAVGPFIRLFDANFSIDDVRRAELTMRVDGTEGFTLKGSSSMSMISRDPLQLVEHAIGPNHQYPDGLVLFLGTMFAPTQDRFGPGQGFTHQVADIVTISTPKLGALVNTVNFSDQTAPWTFGLTALFKNLADRKLI | – | – | – | 3180 ± 180 | 16.9 ± 0.21 | 5320 ± 230 | Km (purified protein [3]): 170 ± 10 µM; kcat (purified protein [3]): 58.2 ± 0.4 s⁻¹; kcat/Km (purified protein [3]): 347900 ± 200 M⁻¹ s⁻¹
CcD-KdpD2 (Caulobacter vibrioides NA1000) (protein, C-terminal His6 tag (kept), pET vector, E. coli BL21(DE3), HisTrap purified) MGVSEFLPEDWKAATLLGRIDFGEGPTPVLVRGGRVEDVSKIAPTVADLMNAFQPGAVIPRGEDKGPLEALDIRPVWEDPDGAAPVKLLAPVDLQCLKAAGVTFAVSTLERVIEERARGDAGEALKIRTLLAERMGGDLKSVEPGSQGAQRLKDALIADGLWSQYLEVAIGPDAEIFTKGPTLSSMGWGDQVGVRYDSHWNNPEPEVVLLCDGSGLIRGAALGNDVNLRDFEGRSALLLSKAKDNNASCAIGPFFRLFDETFGLDDVRSAEVELKITGRDNFVLDGKSNMSLISRDPAVLAGQAYGKQHQYPDGFALFLGTMFAPIQDRDTPGQGFTHKVGDRVRVSTPKLGVLENEVTTCDKAKPWTFGISALIRNLAGRGLL | – | – | – | 3960 ± 130 | 9.67 ± 0.08 | 2440 ± 180 | Km (purified protein [5]): 290 ± 10 µM; kcat (purified protein [5]): 55.8 ± 0.4 s⁻¹; kcat/Km (purified protein [5]): 190600 ± 200 M⁻¹ s⁻¹
PxD-KdpD (Paraburkholderia xenovorans LB400) (protein, C-terminal His6 tag (kept), codon-optimised synthetic gene, E. coli BL21(DE3), HisTrap purified) MSATSPSSFLPDDLGQALLVGRVWRKTDQHEGPSVVVVRGGEVFDITATVPTTADLFDREDAAPLARTAPGVSLGAVAQLIASNLPGAAAPALRLLAPCDVQAIKACGVTFAVSLIERVIEEQAAGDPAKAKEVRDTIASMIGTDLSKIEPGSDAAMKLKAELERRGAWSQYMEVGIGPDAEVFSKSQPMSAVGFGADVGLLAASTWNNPEPEIVLAVNSRGEIVGATLGNDVNLRDIEGRSALLLGKCKDNNGSCAIGPFVRLFDESFSLDSVRTASVALRVEGADDGFVLEGVSHMSEISRDPANLVAQTWGRHHQYPDGFMLFLGTMFSPIKDRDAPGAGFTHHLGDLVTISTPQLGALTNTVRLSTEIEPWTFGVRALYRNLAARGLLASA | – | – | – | 5080 ± 170 | 18.73 ± 0.15 | 3690 ± 180 | Km (purified protein [6]): 280 ± 10 µM; kcat (purified protein [6]): 63.6 ± 0.4 s⁻¹; kcat/Km (purified protein [6]): 229800 ± 200 M⁻¹ s⁻¹
HsL-KdpD (Herbaspirillum seropedicae SmR1) (protein, N-terminal His6 tag (kept), pET vector, E. coli BL21(DE3), HisTrap purified) MSTPLYRGVFPVAPTIFDANGKLDLEGQKRAIDFMIDAGSNGLCILANFSEQFVLSDEERVQVQNTVLEHVAGRVPVIVTTTHYGSQICAERSRAAQDAGAAMVMVMPPYHGATFRVPEKQIYEFYKHVSDAIDIPIMIQDAPVAGTPLSAPFLARMAKEIEQVSYFKIETAGAASKLRDLIELGGDAVVGPWDGEEAITLIPDLDAGATGAMTGGGYPDGIRKIVDAYFAGDIEKAAELYMQWLPLINYENRQCGLSACKALMLEGGVIKSDMLRHPQPPLHPKVREGLLRVARRLDPLVLSWGR | 4410 ± 90 | 11.38 ± 0.06 | 2580 ± 140 | – | – | – | Km (purified protein [7]): 180 ± 0 µM; kcat (purified protein [7]): 29.6 ± 0.2 s⁻¹; kcat/Km (purified protein [7]): 163900 ± 200 M⁻¹ s⁻¹
